Results as given in US20050032689A1, “Methods for treatment or diagnosis of disease or disorders associated with an APB domain” (New York University, priority 1994, published 2005).

B1: Shc 85-209: Shc construct with a more severe amino-terminal deletion, GST fusion protein (protein, UniProt P98083 85-209, looked up, fragment)
chain: GKAAEDGEGSAGAALRDSGLLPLLQDMNKLSGGGGRRTRVEGGQLGGEEWTRHGSFVNKPTRGWLHPNDKVMGPGVSYLVRYMGCVEVLQSMRALDFNTRTQVTREAISLVCEAVPGAKGATRRR
modifications: GST fusion
notes: Shc construct with a more severe amino-terminal deletion, GST fusion protein
B2: Shc 46-209: amino acids encoding the amino terminus of p46Shc, GST fusion protein (protein, UniProt P98083 46-209, looked up, fragment)
chain: LPPLPGDDSPTTLCSFFPRMSNLKLANPAGGRLGPKGEPGKAAEDGEGSAGAALRDSGLLPLLQDMNKLSGGGGRRTRVEGGQLGGEEWTRHGSFVNKPTRGWLHPNDKVMGPGVSYLVRYMGCVEVLQSMRALDFNTRTQVTREAISLVCEAVPGAKGATRRR
modifications: GST fusion
notes: amino acids encoding the amino terminus of p46Shc, GST fusion protein

Experiments:
[1] = target: T1, binding of Shc 1-209 to the EGF receptor (Mus musculus, UniProt P98083); experiment: Phosphotyrosine inhibition of Shc 1-209 binding to EGF receptor; conditions: 30 mM phosphotyrosine; results not shown
T1 construct: we generated Shc 1-209 as a GST fusion protein; made in house; host or cells: bacteria (pGSTag vector)
T1 sequence (P98083 111-319): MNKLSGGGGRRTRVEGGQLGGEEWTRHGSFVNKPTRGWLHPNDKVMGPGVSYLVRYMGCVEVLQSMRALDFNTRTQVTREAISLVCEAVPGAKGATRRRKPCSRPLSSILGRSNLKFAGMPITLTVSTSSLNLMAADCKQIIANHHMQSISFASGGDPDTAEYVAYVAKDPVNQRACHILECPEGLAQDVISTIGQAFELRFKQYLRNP
Excerpt: (§1) Accordingly we examined the binding of the Shc amino terminus (hereafter referred to as Shc 1-209) in further detail. First we determined if the binding of Shc 1-209 was dependent on EGF receptor activation. To perform these studies we generated Shc 1-209 as a GST fusion protein and examined its ability to bind EGF receptor from lysates of NIH 3T3 cells. […] We asked if this binding was dependent on receptor autophosphorylation. EGF receptor was immunoprecipitated from unstimulated cells and then tyrosine-phosphorylated in vitro by adding Mn^2+ and ATP. […] To confirm that the binding was dependent on autophosphorylation, we examined the binding of Shc 1-209 to EGF receptor mutants lacking autophosphorylation sites. […] This may represent a difference in the affinity of interactions or a basic difference in the molecular mechanism of EGF receptor interaction with Shc 1-209 versus SH2 domains.

[2] = target: T2, binding of the Grb7 SH2 domain to EGF receptor (Mus musculus, UniProt Q03160); experiment: Phosphotyrosine inhibition of Grb7 SH2 domain binding to EGF receptor; conditions: 30 mM phosphotyrosine; results not shown
T2 construct: made in house; host or cells: bacteria
T2 sequence (Q03160 434-530 limits assumed): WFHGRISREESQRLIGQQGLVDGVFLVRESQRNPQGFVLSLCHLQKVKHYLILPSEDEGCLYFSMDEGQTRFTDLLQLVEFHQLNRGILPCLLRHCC
Excerpt: as §1

[3] = system: HER2/neu (HER1/2 chimera); experiment: Binding of GST-Shc fusion proteins to HER1/2 chimera from NIH 3T3 lysates, anti-phosphotyrosine blot; conditions: EGF-stimulated NIH 3T3 lysates
Experimental: FIGS. 4A, 4B, 4C and 4D. Binding of Shc fragments to growth factor receptors. A, schematic diagram illustrating the Shc fragments used in binding studies. Full length murine p52^shc is indicated in (i) while (ii)-(vi) were generated as GST fusion proteins for use in receptor binding studies. B, association of various GST fusion proteins with activated EGF receptor (EGFR). Binding was performed as in FIG. 2A with the exception that all lysates were stimulated with EGF. All studies used 3 μg of fusion proteins except for the Shc SH2 where 10 μg was used. Immunoblotting was performed with anti-phosphotyrosine. C, binding of Shc fusion proteins to NIH 3T3 cells expressing a HER1/2 chimera. This chimera consists of the EGF receptor extracellular binding domain and the intracellular region of HER2/neu. After stimulation of these cells with EGF (200 ng/ml) lysates were prepared and binding as well as blotting studies were performed as in B using anti-phosphotyrosine antibody. D, binding of Shc 1-209 to TrkA. Beads containing 10 μg of GST fusion proteins Shc 1-209, phospholipase C-γ (PLC-γ) SH2 (contains both N and C SH2 domains), or GST alone were added to lysates from 2×10^7 PC12 cells stimulated with 50 ng/ml nerve growth factor (lanes 1, 2, and 4). The binding of the same amount of lysate to 2 μg of anti-TrkA antibody is shown as a positive control and to indicate the position of TrkA on the blot (lane 3). Otherwise, the binding and blotting were performed as in B using anti-phosphotyrosine antibody. […] Protein concentration was determined by SDS-PAGE (polyacrylamide gel electrophoresis) using bovine serum albumin as a standard. […]

EGF receptor = target: T3, EGF receptor (Homo sapiens, UniProt P00533); experiment: Binding of GST fusion proteins on glutathione-agarose beads to EGF receptor from HER14 cell lysates, immunoblot; conditions: GST fusion protein, lysates of EGF-stimulated or unstimulated cells
T3 construct: expressed in transfected cells; host or cells: HER14 (NIH 3T3 cells expressing human EGF receptor)
Experimental: FIGS. 2A and 2B. Association of GST-Shc 1-209 with the EGF Receptor (EGFR). A, HER14 lysates from either EGF-stimulated (+) or unstimulated (−) cells (5×10^6 cells) were incubated with 3 μg of GST fusion protein immobilized on glutathione-agarose beads. The bound proteins were washed, subjected to SDS-PAGE, transferred to nitrocellulose and immunoblotted with anti-EGF receptor antibody, anti-C (anti-EGFR). HER14 lysate (4×10^5 cells) was run directly on the gel in lanes 5 and 6. B, unstimulated HER14 lysates (5×10^6 cells) were immunoprecipitated with anti-EGFR antibody (mAb 108). The immobilized receptor was then phosphorylated (+) by the addition of 5 mM MnCl2 and 50 μM ATP or left unphosphorylated (−) by adding MnCl2 alone. Bacterial lysates containing 5 μg of GST, GST-Grb7, and GST-Shc 1-209 were then diluted in 1 ml of 1% Triton X-100 lysis buffer, added to the immobilized receptor and incubated at 4° C. for 90 min. The bound proteins were washed and together with 40 μl of the post-binding supernatant separated by SDS-PAGE and transferred to nitrocellulose. The bound fractions (left panel) and supernatants (right panel) were immunoblotted with anti-GST. FIGS. 4A, 4B, 4C and 4D. Binding of Shc fragments to growth factor receptors. A, schematic diagram illustrating the Shc fragments used in binding studies. Full length murine p52^shc is indicated in (i) while (ii)-(vi) were generated as GST fusion proteins for use in receptor binding studies. B, association of various GST fusion proteins with activated EGF receptor (EGFR). Binding was performed as in FIG. 2A with the exception that all lysates were stimulated with EGF. All studies used 3 μg of fusion proteins except for the Shc SH2 where 10 μg was used. Immunoblotting was performed with anti-phosphotyrosine. C, binding of Shc fusion proteins to NIH 3T3 cells expressing a HER1/2 chimera. This chimera consists of the EGF receptor extracellular binding domain and the intracellular region of HER2/neu. After stimulation of these cells with EGF (200 ng/ml) lysates were prepared and binding as well as blotting studies were performed as in B using anti-phosphotyrosine antibody. D, binding of Shc 1-209 to TrkA. Beads containing 10 μg of GST fusion proteins Shc 1-209, phospholipase C-γ (PLC-γ) SH2 (contains both N and C SH2 domains), or GST alone were added to lysates from 2×10^7 PC12 cells stimulated with 50 ng/ml nerve growth factor (lanes 1, 2, and 4). The binding of the same amount of lysate to 2 μg of anti-TrkA antibody is shown as a positive control and to indicate the position of TrkA on the blot (lane 3). Otherwise, the binding and blotting were performed as in B using anti-phosphotyrosine antibody. […]

Molecule	inhibition of binding of Shc 1-209 to the EGF receptor [1]	inhibition of binding of the Grb7 SH2 domain to the EGF receptor [2]	binding to HER2/neu [3]	binding to EGF receptor (EGF receptor)
N[C@@H](Cc1ccc(OP(=O)(O)O)cc1)C(=O)O [phosphotyrosine]	partially inhibit	completely inhibited	–	–
B1	–	–	did not bind growth factor receptors	did not bind growth factor receptors
B2	–	–	can bind both EGF receptor and HER2/neu receptor	can bind both EGF receptor and HER2/neu receptor
